Patent publication US20250043285A1 (UNM RAINFOREST INNOVATIONS, published 2025)

T1: FLAG-VPS37A (full length) (UniProt Q8NEZ2 1-397)
T1 construct: Expressed in HEK293T cells for Co-IP; also called FLAG-VPS37A^FL; pDest-FLAG-VPS37A^Full; not shown: FLAG tag
T1 sequence (looked up): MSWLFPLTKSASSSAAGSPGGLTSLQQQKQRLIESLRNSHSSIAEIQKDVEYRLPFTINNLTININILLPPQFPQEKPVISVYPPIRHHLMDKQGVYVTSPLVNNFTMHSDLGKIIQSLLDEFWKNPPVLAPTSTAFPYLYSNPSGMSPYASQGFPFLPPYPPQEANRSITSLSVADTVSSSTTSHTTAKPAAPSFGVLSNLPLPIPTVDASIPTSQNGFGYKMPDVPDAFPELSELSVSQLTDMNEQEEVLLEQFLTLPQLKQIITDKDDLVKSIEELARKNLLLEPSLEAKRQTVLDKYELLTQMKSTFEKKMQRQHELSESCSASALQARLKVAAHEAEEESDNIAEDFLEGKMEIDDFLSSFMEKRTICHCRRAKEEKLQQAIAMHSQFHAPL

T2: Myc-UEV^VPS37A (UEV domain of VPS37A only) (UniProt Q8NEZ2 23-217, [35S]-methionine radiolabel)
T2 construct: domain: UEV; the legend is followed; The limits 23-217 are stated for the AlphaFold input, not expressly for the clone; also called Myc-UEV^VP37A; not shown: Myc tag
T2 sequence (looked up): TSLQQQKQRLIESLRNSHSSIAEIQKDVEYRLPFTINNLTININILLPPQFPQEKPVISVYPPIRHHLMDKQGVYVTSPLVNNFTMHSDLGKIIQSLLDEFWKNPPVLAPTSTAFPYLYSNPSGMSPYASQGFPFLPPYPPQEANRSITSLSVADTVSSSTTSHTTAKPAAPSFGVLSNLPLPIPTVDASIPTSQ

B1: Myc-VPS37A (in vitro translated, [35S]-radiolabeled, full length) (other)
chain: MSWLFPLTKSASSSAAGSPGGLTSLQQQKQRLIESLRNSHSSIAEIQKDVEYRLPFTINNLTININILLPPQFPQEKPVISVYPPIRHHLMDKQGVYVTSPLVNNFTMHSDLGKIIQSLLDEFWKNPPVLAPTSTAFPYLYSNPSGMSPYASQGFPFLPPYPPQEANRSITSLSVADTVSSSTTSHTTAKPAAPSFGVLSNLPLPIPTVDASIPTSQNGFGYKMPDVPDAFPELSELSVSQLTDMNEQEEVLLEQFLTLPQLKQIITDKDDLVKSIEELARKNLLLEPSLEAKRQTVLDKYELLTQMKSTFEKKMQRQHELSESCSASALQARLKVAAHEAEEESDNIAEDFLEGKMEIDDFLSSFMEKRTICHCRRAKEEKLQQAIAMHSQFHAPL
modifications: [35S]-methionine radiolabel
notes: In vitro translated in reticulocyte lysate; also called VPS37A^FL; not shown: Myc tag
B2: GFP-GABARAP (other, UniProt O95166 1-116, looked up)
chain: MKFVYKEEHPFEKRRSEGEKIRKKYPDRVPVIVEKAPKARIGDLDKKKYLVPSDLTVGQFYFLIRKRIHLRAEDALFFFVNNVIPPTSATMGQLYQEHHEEDFFLYIAYSDESVYG
notes: Expressed in HEK293T cells for Co-IP; also called GFP-GABARAP (GABA); pDest-GFP-GABARAP; not shown: GFP
B3: GST-GABARAP (other, UniProt O95166 1-117, looked up)
chain: MKFVYKEEHPFEKRRSEGEKIRKKYPDRVPVIVEKAPKARIGDLDKKKYLVPSDLTVGQFYFLIRKRIHLRAEDALFFFVNNVIPPTSATMGQLYQEHHEEDFFLYIAYSDESVYGL
notes: Recombinant, made in E. coli, held on glutathione Sepharose beads; not shown: GST tag
B4: GST-LC3C (other, UniProt Q9BXW4 1-147, looked up)
chain: MPPPQKIPSVRPFKQRKSLAIRQEEVAGIRAKFPNKIPVVVERYPRETFLPPLDKTKFLVPQELTMTQFLSIIRSRMVLRATEAFYLLVNNKSLVSMSATMAEIYRDYKDEDGFVYMTYASQETFGCLESAAPRDGSSLEDRPCNPL
notes: Recombinant, made in E. coli, held on glutathione Sepharose beads; also called GTS-LC3C; not shown: GST tag

Legend:
GST-LC3B = GST-LC3B (UniProt Q9GZQ8 1-125); test: GST pulldown of in vitro translated [35S] Myc-VPS37A
Description: Myc-VPS37A with GST or GST tagged LC3A, LC3B, LC3C, GABARAP, GABARAP-L1 and GABARAP-L2. 2% of input was loaded. 1B, AlphaFold predicted complexes between VPS37^{AdeltaCEV} and GABARAP. 1C, Schematic representation of HaloTag (HT)-LC3B MIL/MPL assay adapted for quantitative high content microscopy (HCM). MIL⁺ profiles, HT-LC3B accessible to membrane impermeant ligand; MPL⁺ profiles, HT-LC3B remaining available (not saturated with MIL) to membrane permeant ligand. 1D, MIL/MPL assay in HeLa^WT and HeLa^HexaKO expressing HT-LC3B, starved in EBSS for 90 min±100 nM BafA1. Cells were sequentially incubated with HT ligands MIL and MPL, and HCM quantification carried out; (d-i) MIL-accessible membrane-bound HT-LC3B; (d-ii) MPL-accessible membrane-bound HT-LC3B (remaining available to MPL after MIL saturation). (d-iii) MIL/MPL puncta ratio. […]

[1] = molecular target: T1, FLAG-VPS37A (full length); test: Co-IP of FLAG-VPS37A and GFP-GABARAP in HEK293T cells (FIG. 7A)
Description: (§1) 7A, Co-IP analysis of interactions between FLAG-VPS37A and GFP-LC3A and GFP-GABARAP (GABA) in HEK293T cells. 5% of input was loaded. 7B, Schematic of VPS37A full length and deletion constructs: (i) VPS37A^FL, full length, (ii) VPS37A^deltaUEV deletion of UEV (cyan), (iii) UEV^VPS37A, UEV domain only (cyan), (iv) VPS37A^{deltaN(1-90)} deletion of residues 1-90, (v) VPS37A^{deltaN(1-20)}, deletion of residues 1-20 (red), (vi) VPS37A^{Nter-EGFP}, N-ter 1-22 chimera with GFP. 7C, GST-Pull down of Myc-UEV^VP37A and Myc-VPS37AdeltaCEV with GST or GST-LC3A, GST-LC3C and GST-GABARAP, 2% of Input was loaded. 7D, Co-IP between GFP-LC3A with FLAG-VPS37A^FL, UEV^VPS37A and VPS37A^deltaCEV. 7E, VPS37AdeltaCEV AlphaFold predicted structure; sequence, 1-22 residues, N-terminus of VPS37A (red, residues predicted to contact mATG8s. 7F, Representation of AlphaFold predicted complexes (rank 1; VPS37A^deltaCEV and GABARAP). 7G,7H Co-IP analyses in HEK293T cells expressing FLAG-VPS37A and GFP-LC3A (in 7H) or GFP-GABARAP (in 7G).
Immunoblotting and co-immunoprecipitation assays. Immunoblotting and co-immunoprecipitation (Co-IP) were performed as described previously⁴. For Co-IP, 10 cm dish cells were transfected with 12 μg of plasmids, wherever stated, and lysed in NP-40 buffer containing protease inhibitor cocktail (Roche, cat #11697498001) and PMSF (Sigma, cat #93482). […]

[2] = molecular target: T2, Myc-UEV^VPS37A (UEV domain of VPS37A …); test: GST pulldown of in vitro translated Myc-tagged protein (FIG. 7C)
Description: as §1
GST pull-down Assay. Recombinant GST and GST-fusion proteins were produced in Escherichia coli SoluBL21 (Genlantis, #C700200) by inducing expression in overnight cultures with 50-75 μg/mL isopropyl β-D-1-thiogalactopyranoside (IPTG). Expressed proteins were purified by immobilization on Glutathione Sepharose 4 Fast Flow beads (GE Healthcare, #17-5132-01). […]

Binder	binding result [2]	further results
B1		binding result (GST-LC3B): no binding
B2		binding result [1]: binds
B3	no binding	
B4	no binding	
